# Test results published in patent US20210260212A1 (MAGENTA THERAPEUTICS, published 2021).
# T1: human CD2 on the surface of cells (MOLT-4 human T lymphoblast cells); primary human T-cells; primary human NK … (human, UniProt P06729 25-351)
# T1 sequence: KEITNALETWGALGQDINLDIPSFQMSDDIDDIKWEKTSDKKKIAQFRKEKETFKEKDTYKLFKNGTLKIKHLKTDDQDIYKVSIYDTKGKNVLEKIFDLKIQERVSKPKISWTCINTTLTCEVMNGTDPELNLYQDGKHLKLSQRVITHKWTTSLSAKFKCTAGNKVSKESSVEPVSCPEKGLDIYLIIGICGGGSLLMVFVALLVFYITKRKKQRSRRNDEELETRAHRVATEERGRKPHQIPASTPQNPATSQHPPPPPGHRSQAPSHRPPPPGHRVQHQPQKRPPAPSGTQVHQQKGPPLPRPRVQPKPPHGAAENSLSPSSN
# Target: T1, human CD2 on the surface of cells …
# Experiment: cell-based or functional assay
binder,measurement,value
"anti-CD2-amanitin ADC: RPA 2.10 conjugated to amanitin with a cleavable linker, interchain, average drug-to-antibody ratio of 6 (other) heavy: not shown light: DILLTQSPAILSVSPGERVSFSCRASQRIGTSIHWYQQRTTGSPRLLIKYASESISGIPSRFSGSGSGTDFTLSINSVESEDVADYYCQQSHGWPFTFGGGTKLEIERADAAPTVSIFPPSSEQLTSGGASVVCFLNNFYPKDINVKWKIDGSERQNGVLNSWTDQDSKDSTYSMSSTLTLTKDEYERHNSYTCEATHKTSTSPIVKSFNRNEC","viability of primary human NK cells after 4 days (CellTiter-Glo), in vitro NK-cell killing assay, IC50",5.2 pM
